Results reported in patent US20240102068A1, “C-GLYCOSYLTRANSFERASE VARIANTS AND USE THEREOF” (KOREA ADVANCED INSTITUTE OF SCIENCE AND TECHNOLOGY, priority 2021, published 2024).
Changes are numbered by the printed parent chain. Names and notes keep the numbering of the source. “Also recorded” adds a separate entry of the source.

B1: ZmCGT: UGT708A6 from Zea mays which acts as a dual C/O-glycosyltransferase (protein, UniProt A0A096SRM5 1-475, looked up)
UDP-glycosyltransferase 708A6: MAANGGDHTSARPHVVLLPSAGMGHLVPFARLAVALSEGHGCNVSVAAVQPTVSSAESRLLDALFVAAAPAVRRLDFRLAPFDESEFPGADPFFLRFEATRRSAPLLGPLLDAAEASALVTDIVLASVALPVARERGVPCYVLFTSSAAMLSLCAYFPAYLDAHAAAGSVGVGVGNVDIPGVFRIPKSSVPQALHDPDHLFTQQFVANGRCLVACDGILVNTFDAFEPDAVTALRQGSITVSGGFPPVFTVGPMLPVRFQAEETADYMRWLSAQPPRSVVYVSFGSRKAIPRDQLRELAAGLEASGKRFLWVVKSTIVDRDDTADLGGLLGDGFLERVQGRAFVTMGWVEQEEILQHGSVGLFISHCGWNSLTEAAAFGVPVLAWPRFGDQRVNAALVARSGLGAWEEGWTWDGEEGLTTRKEVAKKIKGMMGYDAVAEKAAKVGDAAAAAIAKCGTSYQSLEEFVQRCRDAERK
B2: GtCGT: wild-type C-glycosyltransferase GtUF6CGT1 from Gentiana triflora (SEQ ID NO: 1) (protein, listed as Gentiana triflora)
chain: MGSLTNNDNLHIFLVCFIGQGVVNPMLRLGKAFASKGLLVTLSAPEIVGTEIRKANNLNDDQPIKVGSGMIRFEFFDDGWESVNGSKPFDVWVYINHLDQTGRQKLPIMLKKHEETGTPVSCLILNPLVPWVADVADSLQIPCATLWVQSCASFSAYYHYHHGLVPFPTESEPEIDVQLPGMPLLKYDEVPDYLHPRTPYPFFGTNILGQFKNLSKNFCILMDTFYELEHEIIDNMCKLCPIKPIGPLFKIPKDPSSNGITGNFMKVDDCKEWLDSRPTSTVVYVSVGSVVYLKQEQVTEMAYGILNSEVSFLWVLRPPSKRIGTEPHVLPEEFWEKAGDRGKVVQWSPQEQVLAHPATVGFLTHCGWNSTQEAISSGVPVITFPQFGDQVTNAKFLVEEFKVGVRLGRGELENRIITRDEVERALREITSGPKAEEVKENALKWKKKAEETVAKGGYSERNLVGFIEEVARKTGTK
B3: V132A (protein, listed as Gentiana triflora)
chain: B2 chain with V132A
B4: GtCGT V93Q/Y193F/P385A: GtCGT^V93Q/Y193F with additional P385A (Table 12 No. 15) (protein, listed as Gentiana triflora)
chain: B2 chain with V93Q, Y193F, P385A
B5: L164G: GtCGT single mutant L164G (protein, listed as Gentiana triflora)
chain: B2 chain with L164G
B6: GtCGT^V93Q (protein)
chain: B2 chain with V93Q
B7: GtCGT V93Q/Y193F/I323S: GtCGT^V93Q/Y193F with additional I323S (Table 10 No. 12) (protein, listed as Gentiana triflora)
chain: B2 chain with V93Q, Y193F, I323S
B8: F17G (protein, listed as Gentiana triflora)
chain: B2 chain with F17G
B9: Y193F (protein, listed as Gentiana triflora)
chain: B2 chain with Y193F
B10: R322D (protein, listed as Gentiana triflora)
chain: B2 chain with R322D

Experiments:
FK = assay: dcII production from FK by C-glycosyltransferase candidates and GtCGT mutants in FK-producing E. coli, flask culture; assay type: cell-based; conditions: for dcII production: FK-producing E. coli strain; for KA production compared with wild-type GtCGT: mutants transformed into FK strains
Procedure: Flask culture was carried out under the following conditions. Colonies were seeded into 10 mL of LB medium supplemented with appropriate concentrations of antibiotics, followed by culture overnight at 37° C. The culture fluid thus prepared was passaged into a 250 mL baffled flask containing 50 mL of R/2 medium supplemented with 3 g/L yeast extract and 20 g/L glucose (with 0.45 g/L ascorbic acid if necessary), followed by culture at 30° C. and 200 rpm. The composition of R/2 medium (pH 6.8) was as follows (per liter): 2 g of (NH4)2HPO4, 6.75 g of KH2PO4, 0.85 g of citric acid, 0.7 g of MgSO4·7H2O, and 5 ml of trace metal solution (TMS) [10 g of FeSO4·7H2O, 2.25 g of ZnSO4·7H2O, 1 g of CuSO4·5H2O, 0.5 g of MnSO4·5H2O, 0.23 g of Na2B4O7·10H2O, 2 g of CaCl2·2H2O, and 0.1 g of (NH4)6Mo7O24 per liter of 5 M HCl]. When OD600 of the culture fluid reached 0.6-0.8, 1 mM isopropyl β-D-1-thiogalactopyranoside (IPTG) was added to induce exogenous gene expression, followed by culture for 48 hours.
After culture, production analysis was performed under the following conditions. After flask culture, 50 mL of the culture fluid was centrifuged at 4,000 g for 30 minutes, and then the supernatant was desalted and concentrated. Here, Oasis HLB cartridges (Water) were used. The supernatant was concentrated 1-fold for FK, 30-fold for KA, 45-fold for dell, and 200-fold for carminic acid. The concentrated sample was re-dissolved in an appropriate volume of DMSO and impurities were then removed therefrom using a 0.22 μm PTFE filter. The prepared sample was analyzed by MS (LC/MSD VL; Agilent) coupled with HPLC (1100 series; Agilent). An Eclipse XDB-C18 column was used, 0.1% formic acid was used as buffer A, and methanol was used as buffer B. Analysis was performed in an ESI negative mode. For more accurate analysis of carminic acid, LC-MS/MS was performed using an HPLC Triple Quadrupole Mass Spectrometer (LCMS-8050, Shimadzu) (MRM mode).
Flask culture started by seeding colonies from LB agar plates into test tubes containing 10 mL of LB. As such, an appropriate concentration of antibiotics was added, followed by culture overnight at 37° C. at 220 rpm. 1 mL of the seed culture thus prepared was inoculated into a 250 mL baffled flask containing 50 mL of R/2 medium (supplemented with 3 g/L yeast extract and 20 g/L glucose), followed by culture at 30° C. and 200 rpm. The composition of R/2 medium was as follows (pH 6.8, per 1 L): 2 g of (NH4)2HPO4, 6.75 g of KH2PO4, 0.85 g of citric acid, 0.8 g of MgSO4·7H2O, and 5 ml of trace metal solution (TMS). The composition of TMS was as follows (based on 0.1 M HCl, per 1 L): 10 g of FeSO4·7H2O, 2.25 g of ZnSO4·7H2O, 1 g of CuSO4·5H2O, 0.58 g of MnSO4·5H2O, 0.02 g of Na2B4O7·10H2O, 2 g of CaCl2·2H2O, and 0.1 g of (NH4)6Mo7O24·4H2O. When OD600 of the culture fluid reached 0.6-0.8, 0.5 mM IPTG was added to induce exogenous enzyme expression, followed by culture for 48 hours. In all experiments for producing flavokermesic acid, kermesic acid, dcII, and carminic acid, 0.45 g/L of ascorbic acid was further added.
The production of carminic acid (CA) from FK was performed by two biosynthesis pathways, both of which require monooxygenase and C-glycosyltransferase. FK may be oxidized into KA or may be C-glycosylated into dcII. […] In order for the enzyme to have activity, however, it must be glycosylated, and since it also has a transmembrane helix and a signal peptide, successful expression in cells such as E. coli is considered difficult.
For the enzymes selected above, pCDF-DcCGT, pCDF-MiCGT, pCDF-SfCGT, pCDF-EnCGT, pCDF-OsCGT, pCDF-FeCGT, pCDF-GmCGT, pCDF-AvCGT, pCDF-AvCGT, pCDF-ZmCGT, and pCDF-GtCGT were constructed, and all genes except for the iroB gene amplified from genomic DNA of E. coli Nissle using the iroB_gib_F primer and the iroB_gib_R primer were artificially synthesized and inserted into the NdeI site of the pCDFDuet-1 plasmid using Gibson assembly. […]

aloesone = assay: Aloesin production from aloesone by GtCGT and variants in E. coli BL21(DE3), flask culture; assay type: cell-based; conditions: for aloesin production increase: compared to conventional concentration of 0.3 μg/L (ALS strain with GtCGT^V93Q/Y193F); for aloesin production: variant on pCDF-RpALS-GtCGT plasmid (additional RpALS), with pWAS-anti-pabA, pRSF-RpALS, pBBR1-zwf
Procedure: Also, in LC-MS/MS for aloesin analysis, MS (Agilent 6550 iFunnel Q-TOF LC/MS System) coupled with ultra HPLC (UHPLC; 1290 Infinity II LC System; Agilent) was used. Here, an Eclipse-plus C18 column was used, and 0.1% formic acid was used as buffer A, and acetonitrile to which 0.1% formic acid was added was used as buffer B.
Thereafter, in order to test the production of aloesin, the pCDF-GtCGT or pCDF-GtCGT^V93Q/Y193F plasmid was transformed into the BL21(DE3) strain containing pWAS-anti-pabA, pRSF-RpALS, and pBBR1-zwf plasmids, followed by flask culture.
Similarly to the test for increased production of aloesone, RpALS was additionally introduced to increase aloesin production. To this end, pCDF-RpALS-GtCGT^V93Q/Y193F was constructed instead of introducing pCDF-GtCGT^V93Q/Y193F. Specifically, RpALS was amplified from pCDF-RpALS using pCDFDuet F and pCDFDuet R primers, and inserted into the NcoI and BamHI sites of the pCA plasmid through Gibson assembly. Thereafter, four plasmids, namely pRSF-RpALS, pCDF-RpALS-GtCGT^V93Q/Y193F, pWAS-anti-pabA, and pBBR1-zwf, were transformed into E. coli BL21(DE3), which was named an ALS strain.
(§1) Mutagenesis for a specific sequence was performed in the same manner as in Example 2. Here, plasmids containing gene mutants were constructed using pCDF-RpALS-GtCGT^V93Q/Y193F as a template and using primer pairs shown in Table 11 below. The plasmids thus constructed were transformed into the BL21 (DE3) strain along with three plasmids, namely pWAS-anti-pabA, pRSF-RpALS, and pBBR1-zwf, followed by flask culture under the same conditions as in Example 3 using the strains thus constructed. The concentration of aloesin produced was measured in an MRM mode of the HPLC Triple Quadrupole Mass Spectrometer (LCMS-8050, Shimadzu) of the KAIST Biocore Center.
as §1, with “13” for “11”

Molecule | dcII production from FK (in words) (FK; FK-producing E. coli) | KA production compared with wild-type GtCGT (FK; flask culture) | further results
B1 | able to successfully convert FK into dell; also recorded: very small amount | – | main product from FK (FK; FK-producing E. coli): O-glycosylated FK
B2 | able to successfully convert FK into dell | – | dcII production (FK; flask culture): 0.13 mg CA eq/L; dcII production (FK; galU, pgm and ndk overexpressed): 0.30 mg CA eq/L
B3 | – | higher KA production than wild-type GtCGT | –
B4 | – | – | aloesin production increase (aloesone): ≥ 14.1 fold; aloesin production (aloesone): 4.23 µg/L
B5 | – | higher KA production than wild-type GtCGT | –
B6 | highest dcII production | higher KA production than wild-type GtCGT | dcII production increase compared to wild-type GtCGT (FK; FK strain, flask culture): about 2.9 fold
B7 | – | – | aloesin production increase (aloesone): ≥ 25.8 fold; aloesin production (aloesone): 7.75 µg/L
B8 | – | higher KA production than wild-type GtCGT | –
B9 | second highest concentration of dell | higher KA production than wild-type GtCGT | –
B10 | – | higher KA production than wild-type GtCGT | –
